{"source": "the supplement of paper PMC9170038"}
{"tested_on": "K4 kissing-loop RNA reporter", "experiment": "apparent KD of K4 kissing-loop reporter; higher = weaker reporter binding", "settings": "Eterna round: R107; input ligand: arginine 13.2 mM", "procedure": "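RNA-MaP round R107: designed RNA switches with theophylline, tryptophan, arginine or FMN aptamers are transcribed on-chip within common flanks. They are titrated with a labelled K4 kissing-loop RNA reporter in RNA-MaP buffer (100 mM Tris pH 7.5, 80 mM KCl, 4 mM MgCl2), without ligand or with the indicated ligand. Median apparent KD per design.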", "units": {"apparent KD of K4 kissing-loop reporter": "nM"}}
{"sequence": "GCCUAGCAGGGAAGGAGCGCCAUAAGAAGUAAAGGAGGGAGUUGAGUGAUGUUCAAAAUGUGGCAGGUAGGUCGCCCUGCUAGGC [KL-SSArg B13]", "apparent KD of K4 kissing-loop reporter": 388}
{"sequence": "UGUCAUUGGUCUGAUACCAGUCCCUUGGCAGCCUAAAGGAGUGAUGUUCCAAGGAUACCAGACCCUUGGCAGCAGACCGAUGACU [TheoBS 28 #DoubleAptamer #SwitchBubble]", "apparent KD of K4 kissing-loop reporter": 312}
{"sequence": "AAGAGCCUCAAGAGGCAGUAUCUGCCUCAACGAGGACCGGUACGGCCGCCACUCGAAUAAUAGAGUGAUGUUCUAAGAGGCUCAA [AK8 SS Tryptophan A]", "apparent KD of K4 kissing-loop reporter": 558}
{"sequence": "UUUCGCUUCGUCUGAUAUAAUUGGCCAGAAGGAGCGGUAGAAUUACCAGGUAGGUCGCUGGCCCAGUGAUGUUGGGACUAGCGUG [Isrianve]", "apparent KD of K4 kissing-loop reporter": 103}
{"sequence": "UGAUACCAGACGGCCGCCACUACACCAGUCAAAGACUGGAUGUGAUGUUCGACCAGUGAUGUUGGUAGGACCGGGUCUGGUAUCU [TrypBX 7 #Palindromic #SwitchBubble #StaticStem]", "apparent KD of K4 kissing-loop reporter": 121}
{"sequence": "UUUGGAAGCGGUGUUGAUUAGGGAGCGGAAGGAGCGCCGAGGAGGGCAGGUAGGUCGCCGGAAUGUAGUGAUGUUGCAUAGAGGU [ExArgA.Aa]", "apparent KD of K4 kissing-loop reporter": 265}
{"sequence": "UGACUGGACUGAAGGAGCGCUAAACUCCUAGUGAUGUUAGGGAAACGAGACAAAGUCUCGAGGCAGGUAGGUCGCAGUCUAGUCU [FiskerMod 1 - Jieux - Same State - Arginine B]", "apparent KD of K4 kissing-loop reporter": 199}
{"sequence": "CUAUCUUAAGAAGGAUAUUAUGUAACAAACGCAGGCGUAUUAGAAUCAGUGAUGUUGAAAUAGGUUUAAGAAGGUCUUAAAGAAA [theeternabot_sameState_KL_FMN_B_31]", "apparent KD of K4 kissing-loop reporter": 422}
{"sequence": "ACCAAUUUACCGGCAGUAGUGAUGUUACUCCGAGGACCGGUACGGCCGCCACUCGCGAACGUAGGGUUUCUGACUCGAAGAGUCU", "apparent KD of K4 kissing-loop reporter": 127}
{"sequence": "GGCAGUGAUGUUGCCAGUGGCAGAUGUGAAGGAGCGCGGUGAGACGCAGGUAGGUCGCACAUUGAAAUUGCUGUCACUAAAAUGC [#02 K4 Arginine A Exclusion]", "apparent KD of K4 kissing-loop reporter": 300}
{"sequence": "AGGCGGCAUAAUUGACUGAAAAGAAAUUAACGAGGACCGGUACGGCCGCCACUCGAACACCAGUGAUGUUGGUAUGGGAUAAUUU [Exclusion Tryptophan A GF 18]", "apparent KD of K4 kissing-loop reporter": 62.7}
{"sequence": "GCCGUAGAUUGAAGGAGCGGUUCAUCAAUUCAAGUCGAGUGAUGUUCGACGAUUCUCAGUAACCAGGUAGGUCGCAAUCUACGGC", "apparent KD of K4 kissing-loop reporter": 142}
{"sequence": "GGAGCCGAUAGUGAUACCAGCCAGUGAUGUUGGCGAAGUCUCAUUUUCGCUCUCGGUAAGGGCCCUUGGCAGCACUUACUCGGAA [Arledied]", "apparent KD of K4 kissing-loop reporter": 94}
{"sequence": "CAUGAGUGAUGUUCGUGCGCUUGGUCGAAGCGAGGACCGGUACGGCCGCCACUCGCUAUGGCGGCAUCUACCAGUGAUGUUGGUG [Same State Tryptophan A GF 2]", "apparent KD of K4 kissing-loop reporter": 171}
{"sequence": "UGACUGGACUGAAGGAGCGCUGAACUCCUAGUGAUGUUAGGAAAACGAGACAAAGUCUCGCGGCAGGUAGGUCGCAGUCUAGUCU", "apparent KD of K4 kissing-loop reporter": 85.9}
{"sequence": "AAGCGUAAAAUGGCGGACAUACUGCUCCCACGAGGACCGGUACGGCCGCCACUCGAGUGCGGCAGUGAUGUUGCCGCCUUAGCGU [KL-XTryp-A20]", "apparent KD of K4 kissing-loop reporter": 81.3}
{"sequence": "UUAGAUCUUCUAGAUACCAGUCUGUGUAUCAAUGAUACACUUGACUGAGUGAUGUUCAGAGGCCCUUGGCAGCUAGAAGAUCAUU [AK1 SS Theophylline B]", "apparent KD of K4 kissing-loop reporter": 473}
{"sequence": "CUGACUCAAUAGUCAGUGAUGUUGACUGGACGAGGACCGGUACGGCCGCCACUCGAGAGUGGUGUAAAAUAUGUCACAGAGUCAG [Tryp A SS t3b]", "apparent KD of K4 kissing-loop reporter": 194}
{"sequence": "GAUAUAUAUAGAGGAUAUAGCAGGUGAUACAAGAAAGUGAGUGAUGUUUAUGUAGAUGAUGAUAUGUUAGAAGGCUAUAUAUAUC [radioactive7-modED1598]", "apparent KD of K4 kissing-loop reporter": 736}
{"sequence": "UAUGAAGGUGGAGGAUAUUGAUUGAGCCUUGGUCAGGAGUGAUGUUCCGGGAAGCCUUGGGUUCAUCGAGAAGGCCAAGGAUAGU [#09 K4 FMN B Same State]", "apparent KD of K4 kissing-loop reporter": 209}
{"sequence": "UGACUGGACUGAAGGAGCGCGCGAGACAAAGUCUCGAACUCUUAGUGAUGUUAAGAAAUAACGCAGGUAGGUCGCAGUCUAGUCU", "apparent KD of K4 kissing-loop reporter": 122}
{"sequence": "AAAGAGUCACUCGAAGCCAUCGAAGAUGGGCGAGGACCGGUACGGCCGCCACUCGGAGUGAUGUUCCGAAGACUGUAAAAUAAAA [MatMod 11 - Jieux - Exclusion - Tryptophan A]", "apparent KD of K4 kissing-loop reporter": 242}
{"sequence": "CCGAUACAUUAUUCUACGGCCGAGAGUGAUACCAGCCGUAUUUGUGGCCCUUGGCAGCGCAGAUGCAGUGAUGUUGCAUACUUGU [Same State Theophylline A GF 20]", "apparent KD of K4 kissing-loop reporter": 93.7}
{"sequence": "UUAAUAUUGUCGGCCGCCACUGGAUAGUAAUUUGUAUAAUCUAUUUCAAAGUGAUGUUUUGAGUCCAGGACCGGGACAUUUGAUA [JR_Nu_ExcTryptoB_Sub030]", "apparent KD of K4 kissing-loop reporter": 363}
{"sequence": "UUUGAAAUGUCUGAUACCAGAGAAAAUAUAUGUAGUGAUGUUAUAUACAAAUUUAAUAAGCUCCCUUGGCAGCAGUAUGAAUUUU [AstrosExc-TheB#14]", "apparent KD of K4 kissing-loop reporter": 717}
{"sequence": "UGUGAUGUGUAGUGUUAUGUUUUGCGGGAUACCAGAGUCUUUUUAUUCCCUUGGCAGCUUGAGUGAUGUUUGAUGCUGUUCUUGU [cxxdmullin]", "apparent KD of K4 kissing-loop reporter": 349}
{"sequence": "CGCAGUGAUGUUGCUAUAUUUCUUGAUUAACGAGGACCGGUACGGCCGCCACUCGAUUUCUCUCUAAUCCACUAUGUUGUUUAGA [JR_SSTryptoA_Sub002]", "apparent KD of K4 kissing-loop reporter": 472}
